Target: the molecule itself
Test: disulfide-linked peptides by LC-MS/MS (cross-over-read search); non-treated bovine SOD1, filter-aided sample preparation, trypsin/chymotrypsin digest

B1: bovine superoxide dismutase 1 (SOD1) (enzyme)
chain: not shown
modifications: N-terminal acetylation (N-terminally acetylated Cys7 peptides)
notes: superoxide dismutase 1, bovine; 3 Cys residues Cys7, Cys56 and Cys145; also called bovine SOD1; source: bought: Sigma Aldrich S7571
Q: Does B1 bind?
A: Result: binds
